T1: His6-PfAtg3 (P. falciparum 3D7, UniProt C0H519 1-313)
T1 sequence (looked up): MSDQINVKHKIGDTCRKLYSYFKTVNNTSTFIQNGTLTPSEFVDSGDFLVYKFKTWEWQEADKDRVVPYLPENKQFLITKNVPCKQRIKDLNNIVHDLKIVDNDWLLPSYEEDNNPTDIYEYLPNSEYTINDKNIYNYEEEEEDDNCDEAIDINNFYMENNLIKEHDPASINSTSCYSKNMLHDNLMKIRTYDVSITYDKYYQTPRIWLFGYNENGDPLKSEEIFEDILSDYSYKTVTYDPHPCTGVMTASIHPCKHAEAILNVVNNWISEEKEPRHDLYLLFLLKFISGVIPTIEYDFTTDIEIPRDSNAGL


How the values were obtained:
His6-PfAtg3 = molecular target: T1, His6-PfAtg3; assay: SEC + other: dynamic light scattering
His6-PfAtg8 R27E = His6-PfAtg8 R27E (P. falciparum 3D7, UniProt Q8IJK2 1-124, R27E); assay: pull-down
His6-PfAtg8 K47E = His6-PfAtg8 K47E (P. falciparum 3D7, UniProt Q8IJK2 1-124, K47E); assay: pull-down
His6-PfAtg8 L49A = His6-PfAtg8 L49A (P. falciparum 3D7, UniProt Q8IJK2 1-124, L49A); assay: pull-down
[1] = molecular target: His6-PfAtg8 E44A/K45S/K46A (P. falciparum 3D7, UniProt Q8IJK2 1-124, E44A | K45S | K46A); assay: pull-down

Row | Binder | stoichiometry N (His6-PfAtg3) | binding result (His6-PfAtg8 R27E) | binding result (His6-PfAtg8 K47E) | binding result (His6-PfAtg8 L49A) | binding result [1]
1 | His6-PfAtg8 wild type (natural protein, P. falciparum 3D7, UniProt Q8IJK2 1-124, looked up) MPSLKDEVSFENRVAETHKIRSKYPNRIPVVCERANRSNLPIIEKKKFLVPMNMLVGEFKFILHQHINQSAYGSNMKLFRERTIYLFVNNIVPKTGLLMQDLYEMYKDEDGYLYMEYSCESCLG | 1 |  |  |  | 
2 | MBP-PfAtg3 (enzyme) MSDQINVKHKIGDTCRKLYSYFKTVNNTSTFIQNGTLTPSEFVDSGDFLVYKFKTWEWQEADKDRVVPYLPENKQFLITKNVPCKQRIKDLNNIVHDLKIVDNDWLLPSYEEDNNPTDIYEYLPNSEYTINDKNIYNYEEEEEDDNCDEAIDINNFYMENNLIKEHDPASINSTSCYSKNMLHDNLMKIRTYDVSITYDKYYQTPRIWLFGYNENGDPLKSEEIFEDILSDYSYKTVTYDPHPCTGVMTASIHPCKHAEAILNVVNNWISEEKEPRHDLYLLFLLKFISGVIPTIEYDFTTDIEIPRDSNAGL |  | binds | binds | binds | binds

Source: article PMC3496014 (Journal of structural biology, 2012)
